Consider 1 molecule from US20050070001A1, “Xylosyltransferase and isoforms thereof” (priority 1999, published 2005).

The series can be described thus: Storage stability of purified XT enzyme activity. Format: physicochemical. Conditions: purified XT after protamine affinity chromatography, stored at −75° C. As to the method: Step 4: Affinity chromatography on protamine chloride The product of step 3 was desalted and concentrated using dia- and ultrafiltration. […] Additional proteins were eluted with buffer A containing low NaCl concentrations. Enzyme activity was eluted at approximately 0.15 M NaCl (FIG. 1C). The enzyme activity was stable for at least 6 months at −75° C.
Step 4: Affinity chromatography on protanine chloride—XT-containing solution from step 3 was desalted as described above and concentrated to 5 ml by ultrafiltration with YM1 cellulose membranes. The ultrafiltration product was passed through a 0.2 μm filter. 100 μl of the filtrate was loaded onto a protamine chloride—POROS column (4.6×50 mm) equilibrated with buffer A. The flow rate was 10 ml/min. The column was washed with 10.0 ml of buffer A, and the adsorbed fraction was eluted with the same buffer containing NaCl by a stepwise increase of the NaCl concentration: 6.6 ml buffer A/0.04 M NaCl; 6.6 ml buffer A/0,06 M NaCl; 6.6 ml buffer A/0.23 M NaCl followed by a linear gradient of 0.23-1.20 M NaCl (4.2 ml) in buffer A. Fractions of 6.0 ml were collected, assayed for XT activity and evaluated by SDS-PAGE. Cyclic chromatography was repeated 50 times. The purified enzyme was collected, concentrated to 1.0 ml using ultrafiltration techniques and stored at −75° C.

B1: UDP-D-xylose:proteoglycan core protein β-D-xylosyltransferase (protein, UniProt Q86Y38 1-959, looked up)
Xylosyltransferase 1: MVAAPCARRLARRSHSALLAALTVLLLQTLVVWNFSSLDSGAGERRGGAAVGGGEQPPPAPAPRRERRDLPAEPAAARGGGGGGGGGGGGRGPQARARGGGPGEPRGQQPASRGALPARALDPHPSPLITLETQDGYFSHRPKEKVRTDSNNENSVPKDFENVDNSNFAPRTQKQKHQPELAKKPPSRQKELLKRKLEQQEKGKGHTFPGKGPGEVLPPGDRAAANSSHGKDVSRPPHARKTGGSSPETKYDQPPKCDISGKEAISALSRAKSKHCRQEIGETYCRHKLGLLMPEKVTRFCPLEGKANKNVQWDEDSVEYMPANPVRIAFVLVVHGRASRQLQRMFKAIYHKDHFYYIHVDKRSNYLHRQVLQVSRQYSNVRVTPWRMATIWGGASLLSTYLQSMRDLLEMTDWPWDFFINLSAADYPIRTNDQLVAFLSRYRDMNFLKSHGRDNARFIRKQGLDRLFLECDAHMWRLGDRRIPEGIAVDGGSDWFLLNRRFVEYVTFSTDDLVTKMKQFYSYTLLPAESFFHTVLENSPHCDTMVDNNLRITNWNRKLGCKCQYKHIVDWCGCSPNDFKPQDFHRFQQTARPTFFARKFEAVVNQEIIGQLDYYLYGNYPAGTPGLRSYWENVYDEPDGIHSLSDVTLTLYHSFARLGLRRAETSLHTDGENSCRYYPMGHPASVHLYFLADRFQGFLIKHHATNLAVSKLETLETWVMPKKVFKIASPPSDFGRLQFSEVGTDWDAKERLFRNFGGLLGPMDEPVGMQKWGKGPNVTVTVIWVDPVNVIAATYDILIESTAEFTHYKPPLNLPLRPGVWTVKILHHWVPVAETKFLVAPLTFSNRQPIKPEEALKLHNGPLRNAYMEQSFQSLNPVLSLPINPAQVEQARRNAASTGTALEGWLDSLVGGMWTAMDICATGPTACPVMQTCSQTAWSSFSPDPKSELGAVKPDGRLR
notes: enzyme (EC 2.4.2.26) purified from JAR choriocarcinoma cell culture supernatant, MW 120.000
Turning to B1, the “time for which enzyme activity was stable” value was “at least 6 months”.
